Measured values: the supplement of paper PMC10567573

B1: RIPK4 (parent)
chain: AAWQGHLPIVKLLAKQPGVSVNAQ
B2: ESRRG (parent)
chain: YSCPATNECEITKRRRKSCQACRF

Variants of: B1
Assay: protein stability index of a GFP-peptide fusion (GPS, HEK-293T) (PSI 1-6); higher = more stable
Conditions: c terminus: a fixed tail appended
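Further: lentivirally expressed fusions sorted by FACS into six bins by GFP to DsRed ratio, PSI derived from sequencing read proportions per bin multiplied by bin number.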

Compared with AAWQGHLPIVKLLAKQPGVSVNNQ [A23N], AAWQGHLPIVKLLAKQPGVSVNCQ [A23C] is lower in protein stability index: 2.92 for the first, 2.89 for the second.

Compared with AAWQGHLPIVKLLAKQPGVSVNVQ [A23V], AAWQGHLPIVKLLAKQPGVSVNQQ [A23Q] is higher in protein stability index: 2.19 for the first, 3.54 for the second.

Going from AAWQGHLPIVKLLAKQPGVSVNEQ [A23E] to AAWQGHLPIVKLLAKQPGVSVNTQ [A23T], the protein stability index falls from 2.92 to 2.4.

Compared with AAWQGHLPIVKLLAKQPGVSVNGQ [A23G], AAWQGHLPIVKLLAKQPGVSVNYQ [A23Y] is lower in protein stability index: 2.54 for the first, 1.63 for the second.

Compared with AAWQGHLPIVKLLAKQPGVSVNKQ [A23K], AAWQGHLPIVKLLAKQPGVSVNLQ [A23L] is lower in protein stability index: 2.6 for the first, 2.01 for the second.

Compared with AAWQGHLPIVKLLAKQPGVSVNHQ [A23H], AAWQGHLPIVKLLAKQPGVSVNPQ [A23P] is higher in protein stability index: 1.79 for the first, 2.03 for the second.

First: AAWQGHLPIVKLLAKQPGVSVNFQ [A23F]
Second: AAWQGHLPIVKLLAKQPGVSVNIQ [A23I]
The protein stability index of the first is lower: 1.41 for the first, 1.72 for the second.

Going from AAWQGHLPIVKLLAKQPGVSVNDQ [A23D] to AAWQGHLPIVKLLAKQPGVSVNMQ [A23M], the protein stability index falls from 2.65 to 1.74.

First: AAWQGHLPIVKLLAKQPGVEVNAQ [S20E]
Second: AAWQGHLPIVKLLAKQPGVWVNAQ [S20W]
The protein stability index of the first is lower: 2.79 for the first, 2.83 for the second.

First: AAWQGHLPIVKLLAKQPGVGVNAQ [S20G]
Second: AAWQGHLPIVKLLAKQPGVTVNAQ [S20T]
The protein stability index of the first is higher: 2.63 for the first, 2.4 for the second.

Compared with AAWQGHLPIVKLLAKQPGVHVNAQ [S20H], AAWQGHLPIVKLLAKQPGVFVNAQ [S20F] is lower in protein stability index: 1.97 for the first, 1.64 for the second.

First: AAWQGHLPIVKLLAKQPGVVVNAQ [S20V]
Second: AAWQGHLPIVKLLAKQPGVAVNAQ [S20A]
The protein stability index of the first is lower: 1.82 for the first, 2.3 for the second.

First: AAWQGHLPIVKLLAKQPGVIVNAQ [S20I]
Second: AAWQGHLPIVKLLAKQPGVDVNAQ [S20D]
The protein stability index of the first is lower: 2.33 for the first, 2.55 for the second.

Compared with AAWQGHLPIVKLLAKQPGVRVNAQ [S20R], AAWQGHLPIVKLLAKQPGVCVNAQ [S20C] is lower in protein stability index: 2.97 for the first, 2.88 for the second.

First: AAWQGHLPIVKLLAKQPGVLVNAQ [S20L]
Second: AAWQGHLPIVKLLAKQPGVKVNAQ [S20K]
The protein stability index of the first is lower: 1.76 for the first, 1.96 for the second.

First: AAWQGHLPIVKLLAKQPGVQVNAQ [S20Q]
Second: AAWQGHLPIVKLLAKQPGVMVNAQ [S20M]
The protein stability index of the first is higher: 2.35 for the first, 2.29 for the second.

Compared with AAWQGHLPIVKLLAKQPGVYVNAQ [S20Y], AAWQGHLPIVKLLAKQPGVPVNAQ [S20P] is higher in protein stability index: 1.66 for the first, 2.05 for the second.

First: AAWQGHLPIVKLLAKQPGVSNNAQ [V21N]
Second: AAWQGHLPIVKLLAKQPGVSTNAQ [V21T]
The protein stability index of the first is higher: 2.99 for the first, 2.18 for the second.

Compared with AAWQGHLPIVKLLAKQPGVSMNAQ [V21M], AAWQGHLPIVKLLAKQPGVSCNAQ [V21C] is lower in protein stability index: 1.95 for the first, 1.54 for the second.

Compared with AAWQGHLPIVKLLAKQPGVSKNAQ [V21K], AAWQGHLPIVKLLAKQPGVSHNAQ [V21H] is lower in protein stability index: 2.8 for the first, 2.45 for the second.

Compared with AAWQGHLPIVKLLAKQPGVSGNAQ [V21G], AAWQGHLPIVKLLAKQPGVSDNAQ [V21D] is higher in protein stability index: 1.6 for the first, 3.05 for the second.

First: AAWQGHLPIVKLLAKQPGVSRNAQ [V21R]
Second: AAWQGHLPIVKLLAKQPGVSSNAQ [V21S]
The protein stability index of the first is lower: 2.75 for the first, 2.81 for the second.

First: AAWQGHLPIVKLLAKQPGVSPNAQ [V21P]
Second: AAWQGHLPIVKLLAKQPGVSANAQ [V21A]
The protein stability index of the first is lower: 2.3 for the first, 2.62 for the second.

First: AAWQGHLPIVKLLAKQPGVSLNAQ [V21L]
Second: AAWQGHLPIVKLLAKQPGVSYNAQ [V21Y]
The protein stability index of the first is higher: 2.51 for the first, 1.89 for the second.

First: AAWQGHLPIVKLLAKQPGVSFNAQ [V21F]
Second: AAWQGHLPIVKLLAKQPGVSINAQ [V21I]
The protein stability index of the first is lower: 2.23 for the first, 2.43 for the second.

Compared with AAWQGHLPIVKLLAKQPGVSQNAQ [V21Q], AAWQGHLPIVKLLAKQPGVSENAQ [V21E] is higher in protein stability index: 2.3 for the first, 2.92 for the second.

Variants of: B2
Assay: as above
Conditions: c terminus: a fixed tail appended

First: YSCPATNECEITKRRRKSCQAVRF [C22V]
Second: YSCPATNECEITKRRRKSCQASRF [C22S]
The protein stability index of the first is lower: 3.66 for the first, 3.9 for the second.

Compared with YSCPATNECEITKRRRKSCQALRF [C22L], YSCPATNECEITKRRRKSCQAWRF [C22W] is lower in protein stability index: 3.71 for the first, 2.94 for the second.

Going from YSCPATMECEITKRRRKSCQACRF [N7M] to YSCPATAECEITKRRRKSCQACRF [N7A], the protein stability index falls from 2.96 to 2.64.

Compared with YSCPATNEAEITKRRRKSCQACRF [C9A], YSCPATNEVEITKRRRKSCQACRF [C9V] is higher in protein stability index: 3.39 for the first, 3.46 for the second.

Going from YSCPATNNCEITKRRRKSCQACRF [E8N] to YSCPATNGCEITKRRRKSCQACRF [E8G], the protein stability index rises from 3.29 to 3.54.

Compared with YSCPATNECEITKRRRKSCQACRR [F24R], YSCPATNECEITKRRRKSCQACRP [F24P] is higher in protein stability index: 3.41 for the first, 3.51 for the second.

Going from YSCPATNECEITKRRRKSCQACRM [F24M] to YSCPATNECEITKRRRKSCQACRW [F24W], the protein stability index falls from 3.89 to 2.88.

Compared with YSCPATNECEITKRRRKHCQACRF [S18H], YSCPATNECEITKRRRKICQACRF [S18I] is lower in protein stability index: 3.48 for the first, 3.16 for the second.

Going from YSCPATNECEITKRRRKCCQACRF [S18C] to YSCPATNECEITKRRRKKCQACRF [S18K], the protein stability index rises from 3.31 to 3.51.

Compared with YSCPATNECEPTKRRRKSCQACRF [I11P], YSCPAPNECEITKRRRKSCQACRF [T6P] is lower in protein stability index: 3.58 for the first, 2.2 for the second.

Compared with YSIPATNECEITKRRRKSCQACRF [C3I], YSCPATNECEITDRRRKSCQACRF [K13D] is higher in protein stability index: 3.37 for the first, 3.68 for the second.

Going from YSCPATNECEITERRRKSCQACRF [K13E] to YSCPATNECEITKRRHKSCQACRF [R16H], the protein stability index rises from 3.45 to 3.8.

Compared with YSCPATNECEITKRRMKSCQACRF [R16M], YSCPQTNECEITKRRRKSCQACRF [A5Q] is higher in protein stability index: 3.07 for the first, 3.26 for the second.

Compared with YSCPPTNECEITKRRRKSCQACRF [A5P], YSCPSTNECEITKRRRKSCQACRF [A5S] is higher in protein stability index: 3.12 for the first, 3.33 for the second.

Compared with YKCPATNECEITKRRRKSCQACRF [S2K], YPCPATNECEITKRRRKSCQACRF [S2P] is lower in protein stability index: 3.15 for the first, 2.98 for the second.

Compared with YSCPATNECEITKLRRKSCQACRF [R14L], YSCPATNECEITKTRRKSCQACRF [R14T] is higher in protein stability index: 2.81 for the first, 3.42 for the second.

Compared with YSCPATNECSITKRRRKSCQACRF [E10S], YSCPATNECEITKRRRFSCQACRF [K17F] is lower in protein stability index: 3.14 for the first, 2.69 for the second.

First: YSCPATNECEITKRRRLSCQACRF [K17L]
Second: YSCPATNECEIHKRRRKSCQACRF [T12H]
The protein stability index of the first is lower: 3.06 for the first, 4.38 for the second.

First: YSCIATNECEITKRRRKSCQACRF [P4I]
Second: YSCLATNECEITKRRRKSCQACRF [P4L]
The protein stability index of the first is lower: 2.53 for the first, 2.64 for the second.

Compared with YSCNATNECEITKRRRKSCQACRF [P4N], YSCPATNECEITKRRRKSCNACRF [Q20N] is higher in protein stability index: 3.24 for the first, 3.52 for the second.

Going from YSCPATNECEITKRRRKSCDACRF [Q20D] to YSCPATNECEITKRRRKSCLACRF [Q20L], the protein stability index falls from 3.7 to 2.53.
